Source: US20200109188A1 (AstraZeneca / MedImmune, published 2020)
Substitutions are numbered along the chain they refer to.

B1: Antibody 5 (antibody, V domains shown)
VH: QVQLQQSGPGLVKPSQTLSLTCAISGDRVSSNSAVWNWIRQSPSRGLEWLGRTYYRSKWYYDYAESVKSRIVIDPDTSKNQVSLQLNSVTPEDSAIYYCARGGHITVFGLNIDAYDIWGQGAMVTVSS
VL: DIQMTQSPSSLSASVGDRVTISCRAQSLSSYLHWYQQKPGQPPKLLIYAATTLQSGVPSRFSGSGSGTDFTLTISTFQAEDVATYYCQQSRTFGQGTKVEIK
B2: Antibody 6 (antibody, V domains shown)
VH: B1 VH with V107E
VL: B1 VL
B3: Antibody 8 (antibody, V domains shown)
VH: QVQLQQSGPGLVKPSQTLSLTCVISGDTVSSNRATWNWMRQSPLRGLEWLGRTYYRSKWYNDYAVSVKSRVVINPDTSKNQVSLQLNTVTPDDSGVYFCARGGHITVFGVNIDAFDIWGLGTKVTVSS
VL: DIQMTQSPSSLSASVGDRVTISCRASQRLNSYLHWYQQTPGQAPKLLIYATSTLQSGVSPRFSGSGSGTDFTLTISSLQPEDVATYYCQLSRTFGHGTKVEIK
B4: Antibody 10 (antibody, V domains shown)
VH: QVQLQQSGPGLVKPSQTLSLTCAISGDSVSSNSATWNWIRQSPSRGLEWLGRTYYRSKWYNDYADFLKRRITINPDTSNNEVSLRLTSVTPDDTALYYCARGGHITVFGVNIDAFDVWGQGTMVTVSS
VL: DIQMTQSPSSLSASVGDRITISCRTSQSLRSYLHWYQQKPGKAPKLLIYASSTLQSGVPSRFSGSGSGTDFTLTISNLQPEDFATYYCQLSRTFGQGTKVEIK

The binders below were run against HA of A/Fort Monmouth/1/47 (H1N1) virus (influenza A virus) (assay: cell-based or functional assay).

Binder	Neutralization IC50, H1-FM47 [µg/mL]
B1	0.86
B2	3.04
B3	1.37
B4	1.11

Each binder was assayed against HA of A/New Jersey/8/76 (H1N1) virus (influenza A virus) (assay: cell-based or functional assay).

Binder	Neutralization IC50, H1-NJ76 [µg/mL]
B1	1.64
B2	2.6
B3	2.26
B4	0.15

Each binder was assayed against HA of A/Kawasaki/9/86 (H1N1) virus (influenza A virus) (assay: cell-based or functional assay).

Binder	Neutralization IC50, H1-Kaw86 [µg/mL]
B1	1.01
B2	3.51
B3	2.11
B4	1.62

What follows are binders tested against HA of ca A/Texas/36/91 (H1N1) virus (influenza A virus) (assay: cell-based or functional assay).

Binder	Neutralization IC50, H1-TX91 [µg/mL]
B1	0.76
B2	2.2
B3	0.7
B4	0.48

The binders below were run against HA of ca A/Beijing/262/95 (H1N1) virus (influenza A virus) (assay: cell-based or functional assay).

Binder	Neutralization IC50, H1-BJ95 [µg/mL]
B1	5.06
B2	20.9
B3	10.6
B4	4.46

Each binder was assayed against HA of ca A/New Caledonia/20/99 (H1N1) virus (influenza A virus) (assay: cell-based or functional assay).

Binder	Neutralization IC50, H1-Ncal99 [µg/mL]
B1	0.85
B2	3
B3	2.06
B4	1.26

These binders were tested against HA of ca A/swine/Missouri/06 (H2N3) virus (influenza A virus) (assay: cell-based or functional assay).

Binder	Neutralization IC50, H2-MO06 [µg/mL]
B1	2.38
B2	2.9
B3	2.62
B4	1.04

These binders were tested against HA of ca A/Vietnam/1203/04 (H5N1) virus (influenza A virus) (assay: cell-based or functional assay).

Binder	Neutralization IC50, H5-VM04 [µg/mL]
B1	2.6
B2	8.87
B3	3.9
B4	2.21

Each binder was assayed against HA of ca A/Hong Kong/213/03 (H5N1) virus (influenza A virus) (assay: cell-based or functional assay).

Binder	Neutralization IC50, H5-HK03 [µg/mL]
B1	1.18
B2	10.4
B3	1.82
B4	1.6

What follows are binders tested against HA of ca A/teal/Hong Kong/W312/97 (H6N1) virus (influenza A virus) (assay: cell-based or functional assay).

Binder	Neutralization IC50, H6-HK97 [µg/mL]
B1	2.27
B2	3.23
B3	2.97
B4	1.05

Each binder was assayed against HA of ca A/chicken/Hong Kong/G9/97 (H9N2) virus (influenza A virus) (assay: cell-based or functional assay).

Binder	Neutralization IC50, H9-HK97 [µg/mL]
B1	2.43
B2	16.5
B3	26.4
B4	1.76

The binders below were run against HA of A/Hong Kong/8/68 (H3N2) virus (influenza A virus) (assay: cell-based or functional assay).

Binder	Neutralization IC50, H3-HK68 [µg/mL]
B1	0.39
B2	2.04
B3	2.82
B4	0.85

What follows are binders tested against HA of A/Victoria/3/75 (H3N2) virus (influenza A virus, UniProt P03435 17-567) (assay: cell-based or functional assay).
HA of A/Victoria/3/75 (H3N2) virus, sequence (P03435 17-567 limits assumed): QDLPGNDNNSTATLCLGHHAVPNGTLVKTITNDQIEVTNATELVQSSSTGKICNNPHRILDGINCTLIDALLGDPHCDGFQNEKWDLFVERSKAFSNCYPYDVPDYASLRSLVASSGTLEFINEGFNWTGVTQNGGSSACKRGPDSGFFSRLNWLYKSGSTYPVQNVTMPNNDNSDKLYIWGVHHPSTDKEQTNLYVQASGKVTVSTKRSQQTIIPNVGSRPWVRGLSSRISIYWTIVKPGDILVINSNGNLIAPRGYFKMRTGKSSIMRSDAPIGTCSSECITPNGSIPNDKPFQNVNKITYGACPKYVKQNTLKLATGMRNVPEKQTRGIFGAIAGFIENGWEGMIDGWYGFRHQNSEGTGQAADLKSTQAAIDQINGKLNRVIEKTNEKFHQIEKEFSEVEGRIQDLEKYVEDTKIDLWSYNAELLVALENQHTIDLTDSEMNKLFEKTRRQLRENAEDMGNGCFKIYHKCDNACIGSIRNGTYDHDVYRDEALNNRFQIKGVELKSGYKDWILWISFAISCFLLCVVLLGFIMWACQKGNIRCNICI

Binder	Neutralization IC50, H3-Vic75 [µg/mL]
B1	0.57
B2	1.09
B3	3.83
B4	0.91

The binders below were run against HA of H3-LA87 (A/Los Angeles/7/09 (H3N2)) virus (influenza A virus) (assay: cell-based or functional assay).

Binder	Neutralization IC50, H3-LA87 [µg/mL]
B1	3.54
B2	12.6
B3	> 50
B4	4.59

These binders were tested against HA of ca A/Sydney/5/97 (H3N2) virus (influenza A virus) (assay: cell-based or functional assay).

Binder	Neutralization IC50, H3-Syd97 [µg/mL]
B1	3.03
B2	6.54
B3	> 50
B4	9.29

What follows are binders tested against HA of ca A/Panama/2007/99 (H3N2) virus (influenza A virus) (assay: cell-based or functional assay).

Binder	Neutralization IC50, H3-Pa99 [µg/mL]
B1	16.7
B2	25.8
B3	> 50
B4	18.7

These binders were tested against HA of A/Wyoming/03/03 (H3N2) virus (influenza A virus) (assay: cell-based or functional assay).

Binder	Neutralization IC50, H3-Wy03 [µg/mL]
B1	0.77
B2	4.7
B3	> 50
B4	1.52

The binders below were run against HA of A/Wisconsin/67/05 (H3N2) virus (influenza A virus) (assay: cell-based or functional assay).

Binder	Neutralization IC50, H3-Wl05 [µg/mL]
B1	2.83
B2	6.76
B3	> 50
B4	4.46

Each binder was assayed against HA of ca A/Perth/16/09 (H3N2) virus (influenza A virus) (assay: cell-based or functional assay).

Binder	Neutralization IC50, H3-Perth09 [µg/mL]
B1	2.22
B2	5.03
B3	> 50
B4	2.56

These binders were tested against HA of ca A/Netherlands/219/03 (H7N7) virus (influenza A virus) (assay: cell-based or functional assay).

Binder	Neutralization IC50, H7-NLD03 [µg/mL]
B1	4.14
B2	> 50
B3	12.8
B4	3.8

Each binder was assayed against HA of ca A/Brit. Columbia/CN-6/04 (H7N3-LP) virus (influenza A virus) (assay: cell-based or functional assay).

Binder	Neutralization IC50, H7-BC04 [µg/mL]
B1	5.35
B2	> 50
B3	14.7
B4	3.59
